Measured values as given in the supplement of paper PMC10567573.

B1: KLHL12 (parent)
chain: SMTTPRCYVGATVLRGRLYAIAGY

Variants of: B1
Assay: protein stability index of a GFP-peptide fusion (GPS, HEK-293T) (PSI 1-6); higher = more stable
Conditions: c terminus: a fixed tail appended
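Note: lentivirally expressed fusions sorted by FACS into six bins by GFP to DsRed ratio, PSI derived from sequencing read proportions per bin multiplied by bin number.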

Question: With SMTTPRCYVGATVLRGRLYAIAGC [Y24C] as the variant, how does the protein stability index read?
Answer: 1.82

Question: With SMTTPRCYVGATVLRGRLYAIAGE [Y24E] as the variant, how does the protein stability index read?
Answer: 2.33

Question: For SMTTPRCYVGATVLRGRLYAIAGA [Y24A], which protein stability index is on record?
Answer: 1.48

Question: For SMTTPRCYVGATVLRGRLYAIAGD [Y24D], which protein stability index is on record?
Answer: 2.03

Question: Which protein stability index does the source give for SMTTPRCYVGATLLRGRLYAIAGY [V13L] here?
Answer: 3.54

Question: For SMTTPRCYVGATNLRGRLYAIAGY [V13N], which protein stability index is on record?
Answer: 1.81

Question: For SMTTPRCYVGATGLRGRLYAIAGY [V13G], which protein stability index is on record?
Answer: 2.24

Question: With SMTTPRCYVGATILRGRLYAIAGY [V13I] as the variant, how does the protein stability index read?
Answer: 1.84

Question: For SMTTPRCYVGATKLRGRLYAIAGY [V13K], which protein stability index is on record?
Answer: 1.96

Question: Which protein stability index does the source give for SMTTPRCYVGATTLRGRLYAIAGY [V13T] here?
Answer: 1.03

Question: For SMTTPRCYVGATYLRGRLYAIAGY [V13Y], which protein stability index is on record?
Answer: 2.03

Question: For SMTTPRCYVGATSLRGRLYAIAGY [V13S], which protein stability index is on record?
Answer: 1.88

Question: With SMTTPRCYVGATHLRGRLYAIAGY [V13H] as the variant, how does the protein stability index read?
Answer: 3.25

Question: With SMTTPRCYVGATRLRGRLYAIAGY [V13R] as the variant, how does the protein stability index read?
Answer: 1.74

Question: With SMTTPRCYVGATPLRGRLYAIAGY [V13P] as the variant, how does the protein stability index read?
Answer: 1.95

Question: Which protein stability index does the source give for SMTTPRCYVGATMLRGRLYAIAGY [V13M] here?
Answer: 1.73

Question: Which protein stability index does the source give for SMTTPRCYVGATQLRGRLYAIAGY [V13Q] here?
Answer: 2.85

Question: For SMTTPRCYVGATVLRGRLYAVAGY [I21V], which protein stability index is on record?
Answer: 2.33

Question: With SMTTPRCYVGATVLRGRLYATAGY [I21T] as the variant, how does the protein stability index read?
Answer: 1.37

Question: For SMTTPRCYVGATVLRGRLYANAGY [I21N], which protein stability index is on record?
Answer: 1.81

Question: With SMTTPRCYVGATVLRGRLYAFAGY [I21F] as the variant, how does the protein stability index read?
Answer: 2.81

Question: Which protein stability index does the source give for SMTTPRCYVGATVLRGRLYAPAGY [I21P] here?
Answer: 2.29

Question: Which protein stability index does the source give for SMTTPRCYVGATVLRGRLYAWAGY [I21W] here?
Answer: 2.43

Question: With SMTTPRCYVGATVLRGRLYAHAGY [I21H] as the variant, how does the protein stability index read?
Answer: 1.59

Question: With SMTTPRCYVGATVLRGRLYAAAGY [I21A] as the variant, how does the protein stability index read?
Answer: 2.65

Question: For SMTTPRCYVGATVLRGRLYAGAGY [I21G], which protein stability index is on record?
Answer: 1.78

Question: Which protein stability index does the source give for SMTTPRCYVGATVLRGRLYADAGY [I21D] here?
Answer: 1.46

Question: With SMTTPRCYVGATVLRGRLYASAGY [I21S] as the variant, how does the protein stability index read?
Answer: 1.2

Question: With SMTTPRCYVGATVLRGRLYAEAGY [I21E] as the variant, how does the protein stability index read?
Answer: 1.78

Question: With SMTTPRCYVGATVLRGRLYARAGY [I21R] as the variant, how does the protein stability index read?
Answer: 1.93

Question: For SMTTPRCYVGATVLRGRLYAKAGY [I21K], which protein stability index is on record?
Answer: 1.57

Question: With SMTTPRCYVGATVLRGRLYACAGY [I21C] as the variant, how does the protein stability index read?
Answer: 1.37

Question: Which protein stability index does the source give for SMTTPRCYVGATVLRGRLYAQAGY [I21Q] here?
Answer: 1.67

Question: For SMTTPRCYVGATVLRGRLYALAGY [I21L], which protein stability index is on record?
Answer: 2.73

Question: For SMTTPRCYVGATVLRGRLYAMAGY [I21M], which protein stability index is on record?
Answer: 1.28

Question: With SMTTPRCYVGATVNRGRLYAIAGY [L14N] as the variant, how does the protein stability index read?
Answer: 1.17

Question: With SMTTPRCYVGATVARGRLYAIAGY [L14A] as the variant, how does the protein stability index read?
Answer: 1.79

Question: For SMTTPRCYVGATVPRGRLYAIAGY [L14P], which protein stability index is on record?
Answer: 2.01

Question: For SMTTPRCYVGATVTRGRLYAIAGY [L14T], which protein stability index is on record?
Answer: 2.5

Question: Which protein stability index does the source give for SMTTPRCYVGATVIRGRLYAIAGY [L14I] here?
Answer: 1.99

Question: With SMTTPRCYVGATVWRGRLYAIAGY [L14W] as the variant, how does the protein stability index read?
Answer: 3.9

Question: For SMTTPRCYVGATVFRGRLYAIAGY [L14F], which protein stability index is on record?
Answer: 1.77

Question: For SMTTPRCYVGATVYRGRLYAIAGY [L14Y], which protein stability index is on record?
Answer: 3.61

Question: With SMTTPRCYVGATVRRGRLYAIAGY [L14R] as the variant, how does the protein stability index read?
Answer: 1.99

Question: With SMTTPRCYVGATVSRGRLYAIAGY [L14S] as the variant, how does the protein stability index read?
Answer: 1.9

Question: With SMTTPRCYVGATVHRGRLYAIAGY [L14H] as the variant, how does the protein stability index read?
Answer: 1.62

Question: Which protein stability index does the source give for SMTTPRCYVGATVERGRLYAIAGY [L14E] here?
Answer: 1.93

Question: Which protein stability index does the source give for SMTTPRCYVGATVGRGRLYAIAGY [L14G] here?
Answer: 1.55

Question: With SMTTPRCYVGATVKRGRLYAIAGY [L14K] as the variant, how does the protein stability index read?
Answer: 1.93

Question: Which protein stability index does the source give for SMTTPRCYVGATVQRGRLYAIAGY [L14Q] here?
Answer: 2.76

Question: For SMTTPRCYVGATVDRGRLYAIAGY [L14D], which protein stability index is on record?
Answer: 1.58

Question: For SMTTPRCYVGATVCRGRLYAIAGY [L14C], which protein stability index is on record?
Answer: 2.48

Question: Which protein stability index does the source give for SMTTPRCYVGATVLRFRLYAIAGY [G16F] here?
Answer: 2.91

Question: Which protein stability index does the source give for SMTTPRCYVGATVLRERLYAIAGY [G16E] here?
Answer: 1.25

Question: For SMTTPRCYVGATVLRIRLYAIAGY [G16I], which protein stability index is on record?
Answer: 3.21

Question: For SMTTPRCYVGATVLRCRLYAIAGY [G16C], which protein stability index is on record?
Answer: 2.22

Question: For SMTTPRCYVGATVLRQRLYAIAGY [G16Q], which protein stability index is on record?
Answer: 1.45

Question: For SMTTPRCYVGATVLRSRLYAIAGY [G16S], which protein stability index is on record?
Answer: 2.46

Question: With SMTTPRCYVGATVLRHRLYAIAGY [G16H] as the variant, how does the protein stability index read?
Answer: 1.98

Question: With SMTTPRCYVGATVLRPRLYAIAGY [G16P] as the variant, how does the protein stability index read?
Answer: 2.19

Question: For SMTTPRCYVGATVLRKRLYAIAGY [G16K], which protein stability index is on record?
Answer: 1.77

Question: Which protein stability index does the source give for SMTTPRCYVGATVLRYRLYAIAGY [G16Y] here?
Answer: 2.42

Question: Which protein stability index does the source give for SMTTPRCYVGATVLRLRLYAIAGY [G16L] here?
Answer: 2.05

Question: Which protein stability index does the source give for SMTTPRCYVGATVLRRRLYAIAGY [G16R] here?
Answer: 2.39

Question: Which protein stability index does the source give for SMTTPRCYVGATVLRVRLYAIAGY [G16V] here?
Answer: 3.05

Question: For SMTTPRCYVGATVLRDRLYAIAGY [G16D], which protein stability index is on record?
Answer: 1.58

Question: For SMTTPRCYVGATVLRWRLYAIAGY [G16W], which protein stability index is on record?
Answer: 1.48

Question: For SMTTPRCYVGATVLRNRLYAIAGY [G16N], which protein stability index is on record?
Answer: 1.98

Question: Which protein stability index does the source give for SMTTPRCYVGATVLRTRLYAIAGY [G16T] here?
Answer: 2.04

Question: With SMTTPRCYVGATVLRGRCYAIAGY [L18C] as the variant, how does the protein stability index read?
Answer: 2.93

Question: For SMTTPRCYVGATVLRGRHYAIAGY [L18H], which protein stability index is on record?
Answer: 2.1

Question: For SMTTPRCYVGATVLRGRAYAIAGY [L18A], which protein stability index is on record?
Answer: 1.49

Question: Which protein stability index does the source give for SMTTPRCYVGATVLRGRSYAIAGY [L18S] here?
Answer: 1.36

Question: Which protein stability index does the source give for SMTTPRCYVGATVLRGRQYAIAGY [L18Q] here?
Answer: 1.81

Question: Which protein stability index does the source give for SMTTPRCYVGATVLRGRVYAIAGY [L18V] here?
Answer: 2.08

Question: Which protein stability index does the source give for SMTTPRCYVGATVLRGRYYAIAGY [L18Y] here?
Answer: 2.68

Question: With SMTTPRCYVGATVLRGRDYAIAGY [L18D] as the variant, how does the protein stability index read?
Answer: 1.94

Question: Which protein stability index does the source give for SMTTPRCYVGATVLRGRTYAIAGY [L18T] here?
Answer: 1.78

Question: For SMTTPRCYVGATVLRGRPYAIAGY [L18P], which protein stability index is on record?
Answer: 1.87

Question: For SMTTPRCYVGATVLRGRKYAIAGY [L18K], which protein stability index is on record?
Answer: 1.75

Question: For SMTTPRCYVGATVLRGRFYAIAGY [L18F], which protein stability index is on record?
Answer: 2.67

Question: For SMTTPRCYVGATVLRGRGYAIAGY [L18G], which protein stability index is on record?
Answer: 1.7

Question: Which protein stability index does the source give for SMTTPRCYVGATVLRGRMYAIAGY [L18M] here?
Answer: 1.72

Question: For SMTTPRCYVGATVLRGREYAIAGY [L18E], which protein stability index is on record?
Answer: 1.95

Question: Which protein stability index does the source give for SMTTPRCYVGATVLRGRIYAIAGY [L18I] here?
Answer: 1.68

Question: With SMTTPRCYVGATVLRGRNYAIAGY [L18N] as the variant, how does the protein stability index read?
Answer: 2

Question: Which protein stability index does the source give for SMTTPRCYVGATVLRGRRYAIAGY [L18R] here?
Answer: 1.9

Question: With SMTTPRCYVGATVLRGRLYAINGY [A22N] as the variant, how does the protein stability index read?
Answer: 1.3

Question: For SMTTPRCYVGATVLRGRLYAIRGY [A22R], which protein stability index is on record?
Answer: 2.86

Question: Which protein stability index does the source give for SMTTPRCYVGATVLRGRLYAIMGY [A22M] here?
Answer: 2.01

Question: With SMTTPRCYVGATVLRGRLYAIGGY [A22G] as the variant, how does the protein stability index read?
Answer: 1.24

Question: With SMTTPRCYVGATVLRGRLYAIPGY [A22P] as the variant, how does the protein stability index read?
Answer: 2.08

Question: With SMTTPRCYVGATVLRGRLYAIKGY [A22K] as the variant, how does the protein stability index read?
Answer: 1.52

Question: For SMTTPRCYVGATVLRGRLYAITGY [A22T], which protein stability index is on record?
Answer: 1.69
